Results on six molecules are retold here after patent US20190161551A1 (Regeneron, published 2019).

Experiment [1] has as its target T1, human TrkB extracellular domain expressed with a C-terminal mouse IgG2a Fc tag (human).
T1 construct: also called hTrkB-mFc; hTrkB.mFc
Put plainly: BLI Octet, captured hTrkB.mFc saturated with hNT-4, 300 nM mAb. As to the method: (§1) Blocking of anti-human TrkB or anti-mouse TrkB antibodies from binding to TrkB by BDNF or NT-4 was evaluated using a real-time bio-layer interferometry (BLI) based Octet HTX instrument. The entire study was performed in 10 mM HEPES pH 7.4, 300 mM NaCl, 3 mM EDTA, 1 mg/mL BSA, 0.02% NaN3 and 0.05% v/v Surfactant Tween-20 (HBS-EBT running buffer) at 25° C. All the samples were dispensed in a 384 tilted well plate and the plate was placed on the orbital shaker with the shake speed of 1000 rpm. hTrkB.mFc was captured on anti-mFc (AMC) Octet sensors while hTrkB.hFc or mTrkB.hFc were captured on anti-hFc (AHC) Octet sensors by dipping in wells containing 10 μg/mL of TrkB reagents for 2 minutes. hTrkB.mFc or hTrkB.hFc captured Octet biosensors were saturated by dipping in wells containing 20 nM of BDNF, hNT-4, or mNT-4 for 2 minutes followed by dipping Octet biosensors in wells containing 300 nM of different TrkB mAbs for 4 minutes. Binding of TrkB mAbs to the complex of TrkB and BDNF, hNT-4, or mNT-4 was determined using Scrubber 2.0c analysis software.

In experiment [2] the target is T1, human TrkB extracellular domain …. Put plainly: BLI Octet, captured hTrkB.mFc, 300 nM mAb, no ligand. On the procedure:
as §1

For experiment [3], the target named is mouse TrkB extracellular domain fused to the transmembrane and cytoplasmic domains of human TrkB, expressed … (mouse; human, UniProt Q16620 431-822, limits assumed). Put plainly: cell-based or functional assay.
For experiment [4], the target named is human TrkB expressed on HEK293/SRE-Luc/hTrkB cells (human, UniProt Q16620 32-822). Put plainly: cell-based or functional assay.
The target of the next experiment is T2, mouse TrkB.hFc (mouse).
T2 construct: also called mTrkB.hFc; mTrkB-hFc
Description: blocking ELISA, mouse TrkB.hFc pre-mixed with mAb, plate-coated BDNF. On the procedure: Experiments were carried out using the following procedure. Human BDNF was coated at a concentration of 0.5 μg/mL (for blocking mouse TrkB.hFc interaction) or 0.3 μg/mL (for blocking rat TrkB.mmh interaction) in PBS on 96-well microtiter plate and incubated overnight at 4° C. […] In a 96-well dilution plate, 850 pM mouse TrkB.hFc or rat TrkB.mmh was mixed with the three-fold serially diluted anti-mouse TrkB antibodies and control antibody. The final antibody concentrations ranged from 1.69 pM to 100 nM. The protein-antibody mix was incubated at room temperature (RT) for 1 hour. The pre-bound mix was then transferred in duplicates to microtiter plates coated with BDNF. A control containing assay buffer alone was included to calculate the baseline of the assay. The ELISA plates were incubated at RT for 1 hour and then washed with plate washing solution. Plate-bound mouse TrkB.hFc was detected with HRP-conjugated goat anti-human Fcγ fragment specific antibody (Jackson Immunoresearch) and rat TrkB.mmh was detected with HRP-conjugated anti-histidine antibody (Qiagen). The plates were incubated with detection antibody for 1 hour at RT and then washed with plate washing solution. The assay plates were developed with TMB colorimetric substrates according to the manufacturer's recommended procedure.
The absorbance at 450 nm for each well was recorded and plotted as a function of the concentration of antibody. Data was analyzed in GraphPad Prism software using a four-parameter logistic equation over an 11-point dose response curve and IC₅₀ values were calculated. […] Percent blockade at maximum concentration of the antibody tested was calculated as an indicator of the ability of the antibodies to block the binding of TrkB to BDNF on the plate relative to the baseline of the assay. Binding signal of 850 pM mouse or rat TrkB in absence of the antibody was defined as 100% binding or 0% blocking. The baseline signal of assay buffer alone was defined as 0% binding or 100% blocking.

In experiment [5] the target is T3, rat TrkB extracellular domain expressed with a C-terminal myc-myc-hexahistidine tag (rat, UniProt Q63604 32-429).
T3 construct: also called rTrkB.mmH; rTRKB.mmH
Description: SPR Biacore T200, mAb captured (anti-mFc), 25C. On the procedure:
(§2) Equilibrium dissociation constants (KD values) for TrkB binding to purified anti-TrkB monoclonal antibodies were determined using a real-time surface plasmon resonance biosensor using a Biacore T200 instrument. All binding studies were performed in 10 mM Hepes pH 7.4, 150 mM NaCl, 3 mM EDTA, and 0.05% v/v Surfactant Tween-20 (HBS-ET running buffer) at 25° C. The Biacore sensor surface was first derivatized by amine coupling with rabbit anti-mouse Fc polyclonal antibody (GE Healthcare #BR-1008-38) to capture anti-TrkB monoclonal antibodies. Binding studies were performed on the following TrkB reagents; human TrkB extracellular domain expressed with a C-terminal myc-myc-hexahistidine tag (hTrkB.mmH; SEQ ID NO: 76; NP_001018074.1), mouse TrkB extracellular domain expressed with a C-terminal myc-myc-hexahistidine tag (mTRKB.mmH; SEQ ID NO: 79; NP_001020245), and rat TrkB extracellular domain expressed with a C-terminal myc-myc-hexahistidine tag (rTRKB.mmH; SEQ ID NO: 84; XP_002721319.1). […] Kinetic association (kₐ) and dissociation (kd) rate constants were determined by fitting the real-time binding sensorgrams to a 1:1 binding model with mass transport limitation using Scrubber 2.0c curve-fitting software. Binding dissociation equilibrium constants (KD) and dissociative half-lives (t½) were calculated from the kinetic rate constants as: […]

For experiment [6], the target named is T4, mouse TrkB extracellular domain expressed with a C-terminal myc-myc-hexahistidine tag (mouse, UniProt P15209 32-429).
T4 construct: also called mTrkB.mmH; mTRKB.mmH
Description: SPR Biacore T200, mAb captured (anti-mFc), 25C. As to the method: as §2

The target in experiment [7] is T5, human TrkB extracellular domain expressed with a C-terminal myc-myc-hexahistidine tag (human, UniProt Q16620 32-430).
T5 construct: also called hTrkB.mmH; hTRKB.mmH
Description: SPR Biacore T200, mAb captured (anti-mFc), 25C. On the procedure:
as §2

Sequence of human TrkB expressed on HEK293/SRE-Luc/hTrkB cells (Q16620 32-822): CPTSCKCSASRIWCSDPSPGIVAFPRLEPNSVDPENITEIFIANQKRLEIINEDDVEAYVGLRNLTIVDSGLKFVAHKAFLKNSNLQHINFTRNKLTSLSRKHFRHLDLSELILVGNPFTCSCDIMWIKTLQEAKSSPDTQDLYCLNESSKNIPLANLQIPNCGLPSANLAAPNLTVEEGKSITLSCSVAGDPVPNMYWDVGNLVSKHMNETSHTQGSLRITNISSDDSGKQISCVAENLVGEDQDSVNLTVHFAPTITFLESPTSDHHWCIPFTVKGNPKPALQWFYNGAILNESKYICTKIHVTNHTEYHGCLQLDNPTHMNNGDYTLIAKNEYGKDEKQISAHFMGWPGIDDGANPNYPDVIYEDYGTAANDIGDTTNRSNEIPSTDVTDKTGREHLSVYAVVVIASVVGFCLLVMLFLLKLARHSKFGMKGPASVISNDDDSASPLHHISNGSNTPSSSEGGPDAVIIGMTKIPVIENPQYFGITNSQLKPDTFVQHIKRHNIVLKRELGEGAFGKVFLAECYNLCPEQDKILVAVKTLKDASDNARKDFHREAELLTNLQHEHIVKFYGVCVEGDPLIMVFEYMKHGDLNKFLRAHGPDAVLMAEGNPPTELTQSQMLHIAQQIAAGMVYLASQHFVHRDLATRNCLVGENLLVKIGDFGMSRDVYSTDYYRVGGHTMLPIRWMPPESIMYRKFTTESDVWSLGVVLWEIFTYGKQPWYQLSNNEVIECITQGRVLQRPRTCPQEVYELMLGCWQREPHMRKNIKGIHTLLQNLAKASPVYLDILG
T5 sequence (Q16620 other isoform, or with tags, fused parts or gaps): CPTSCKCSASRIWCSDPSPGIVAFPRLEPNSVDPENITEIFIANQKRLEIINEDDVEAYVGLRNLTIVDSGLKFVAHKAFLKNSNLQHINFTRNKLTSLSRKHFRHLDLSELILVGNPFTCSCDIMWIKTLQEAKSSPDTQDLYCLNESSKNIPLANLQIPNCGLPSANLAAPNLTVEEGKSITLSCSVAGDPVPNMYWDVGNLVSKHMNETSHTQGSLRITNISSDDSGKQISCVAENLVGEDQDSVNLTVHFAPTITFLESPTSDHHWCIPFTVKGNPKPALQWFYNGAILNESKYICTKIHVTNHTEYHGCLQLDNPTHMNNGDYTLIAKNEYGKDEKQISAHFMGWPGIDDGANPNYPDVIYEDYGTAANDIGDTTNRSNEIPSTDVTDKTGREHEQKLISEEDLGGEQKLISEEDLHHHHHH
T3 sequence (Q63604 other isoform, or with tags, fused parts or gaps): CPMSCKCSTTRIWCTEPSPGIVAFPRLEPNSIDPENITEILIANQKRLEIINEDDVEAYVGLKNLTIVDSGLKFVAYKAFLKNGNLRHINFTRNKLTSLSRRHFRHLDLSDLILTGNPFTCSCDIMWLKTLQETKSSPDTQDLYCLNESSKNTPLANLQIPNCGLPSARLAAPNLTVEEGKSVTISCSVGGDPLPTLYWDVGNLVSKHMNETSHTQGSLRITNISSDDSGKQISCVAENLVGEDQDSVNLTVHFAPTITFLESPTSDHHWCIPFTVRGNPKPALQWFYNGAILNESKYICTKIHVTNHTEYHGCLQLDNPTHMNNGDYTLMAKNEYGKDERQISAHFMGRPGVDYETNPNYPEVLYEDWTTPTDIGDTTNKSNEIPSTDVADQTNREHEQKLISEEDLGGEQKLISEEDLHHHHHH
T2 sequence (chain, as listed by the source limits assumed): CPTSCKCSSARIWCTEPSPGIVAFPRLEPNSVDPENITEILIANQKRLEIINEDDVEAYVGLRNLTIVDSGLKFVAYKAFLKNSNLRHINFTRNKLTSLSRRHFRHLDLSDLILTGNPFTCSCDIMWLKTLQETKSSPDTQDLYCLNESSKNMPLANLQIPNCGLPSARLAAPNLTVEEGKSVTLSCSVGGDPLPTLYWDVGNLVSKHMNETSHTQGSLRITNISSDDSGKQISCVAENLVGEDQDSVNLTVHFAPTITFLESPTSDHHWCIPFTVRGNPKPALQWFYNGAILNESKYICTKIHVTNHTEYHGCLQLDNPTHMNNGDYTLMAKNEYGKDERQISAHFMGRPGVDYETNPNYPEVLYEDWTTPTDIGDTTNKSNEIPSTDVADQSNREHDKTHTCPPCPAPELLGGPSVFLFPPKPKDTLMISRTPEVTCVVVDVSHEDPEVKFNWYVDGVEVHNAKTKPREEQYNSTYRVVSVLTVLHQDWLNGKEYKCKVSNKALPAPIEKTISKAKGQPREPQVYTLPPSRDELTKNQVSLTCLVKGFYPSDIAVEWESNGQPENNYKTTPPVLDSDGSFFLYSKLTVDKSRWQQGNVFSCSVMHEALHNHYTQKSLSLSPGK
T1 sequence (chain, as listed by the source limits assumed): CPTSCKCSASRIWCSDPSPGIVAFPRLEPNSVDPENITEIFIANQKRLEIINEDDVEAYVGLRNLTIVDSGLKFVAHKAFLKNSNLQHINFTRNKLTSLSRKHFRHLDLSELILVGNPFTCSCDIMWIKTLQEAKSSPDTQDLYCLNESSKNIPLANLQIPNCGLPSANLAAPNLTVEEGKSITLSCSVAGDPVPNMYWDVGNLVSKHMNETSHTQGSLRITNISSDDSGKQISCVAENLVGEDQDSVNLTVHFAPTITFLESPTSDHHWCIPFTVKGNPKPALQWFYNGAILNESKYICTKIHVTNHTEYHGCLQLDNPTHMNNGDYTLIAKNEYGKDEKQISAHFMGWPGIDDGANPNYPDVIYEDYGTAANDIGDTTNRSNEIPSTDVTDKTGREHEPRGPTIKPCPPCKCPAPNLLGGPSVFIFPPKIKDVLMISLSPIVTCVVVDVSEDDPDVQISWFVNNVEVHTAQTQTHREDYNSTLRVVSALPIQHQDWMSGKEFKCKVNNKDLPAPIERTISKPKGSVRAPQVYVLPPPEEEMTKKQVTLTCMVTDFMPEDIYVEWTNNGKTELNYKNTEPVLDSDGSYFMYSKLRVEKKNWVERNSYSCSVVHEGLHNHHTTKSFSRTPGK
T4 sequence (P15209 other isoform, or with tags, fused parts or gaps): as the sequence (Q63604 other isoform, or with tags, fused parts or gaps) above, with M3T, T9S, T10A, I32V, K63R, G84S, T153M, I185L, T394S counted along it
Sequence of mouse TrkB extracellular domain fused to the transmembrane and cytoplasmic domains of human TrkB, expressed … (Q16620 other isoform, or with tags, fused parts or gaps limits assumed, form in doubt): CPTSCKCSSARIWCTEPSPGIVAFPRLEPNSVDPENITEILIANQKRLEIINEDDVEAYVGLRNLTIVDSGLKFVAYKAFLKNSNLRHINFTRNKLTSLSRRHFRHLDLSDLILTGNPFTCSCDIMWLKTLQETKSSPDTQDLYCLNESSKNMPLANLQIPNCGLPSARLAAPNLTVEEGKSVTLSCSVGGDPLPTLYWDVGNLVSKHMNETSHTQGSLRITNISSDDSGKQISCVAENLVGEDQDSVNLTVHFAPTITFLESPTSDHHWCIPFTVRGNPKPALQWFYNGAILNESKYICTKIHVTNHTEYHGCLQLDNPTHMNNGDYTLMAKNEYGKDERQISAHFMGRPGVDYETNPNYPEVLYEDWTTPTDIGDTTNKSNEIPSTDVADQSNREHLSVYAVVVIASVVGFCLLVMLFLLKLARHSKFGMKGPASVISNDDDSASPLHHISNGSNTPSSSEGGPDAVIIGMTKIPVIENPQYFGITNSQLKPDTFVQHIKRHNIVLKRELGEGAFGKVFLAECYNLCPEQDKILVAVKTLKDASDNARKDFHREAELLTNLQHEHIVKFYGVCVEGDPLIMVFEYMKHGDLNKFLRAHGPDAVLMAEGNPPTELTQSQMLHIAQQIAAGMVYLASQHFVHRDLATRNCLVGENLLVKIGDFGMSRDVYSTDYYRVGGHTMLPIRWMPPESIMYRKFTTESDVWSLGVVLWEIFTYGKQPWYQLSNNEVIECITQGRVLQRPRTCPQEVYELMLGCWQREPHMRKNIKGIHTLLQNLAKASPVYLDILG

B1: H4H9816P2 (antibody, human IgG4 S228P, kappa, V domains shown)
VH: EVQLVESGGGLVQPGGSLTLSCAASGFNFRDYEMIWVRQTPGKGLEWISYISNSGYTIYYADSVKGRFTISRDNARNSIYLQVNSLRAEDTAVYYCSRRTTMIRGIRAYYYYGLDVWGQGTTVTVSS
VL: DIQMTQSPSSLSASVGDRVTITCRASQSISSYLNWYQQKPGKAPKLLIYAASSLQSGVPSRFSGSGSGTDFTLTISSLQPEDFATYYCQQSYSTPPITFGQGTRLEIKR
notes: Fully human anti-human TrkB agonist antibody, human IgG4 Fc; also called H4H9816P-L1
For B1, the “antibody Binding (nm)” value in experiment [1] stood at 0.24 nm. Moreover, the “antibody Binding (nm)” value in experiment [2] came out at 0.19 nm. Further, in experiment [3], the “Activation (%), SRE-luciferase, 100 pM BDNF” value (“Activation (%) … 100 pM BDNF” for short) came out at 58% and the “Activation (%), SRE-luciferase, No BDNF” value came to 0%. Also, in experiment [4], the “Activation (%) … 100 pM BDNF” value turned out to be 78%; the “Activation (%), SRE-luciferase, No BDNF” value turned out to be 90%; the “EC50 (M), SRE-luciferase, 100 pM BDNF” value is 4.5e-11 M; the “EC50 (M), SRE-luciferase, No BDNF” value is 6.3e-11 M.

B2: M2aM14179N (antibody, mouse IgG2a, kappa, V domains shown)
VH: EVQLQQSGPELVKPGASVKISCKASGYTLTDYYMNWVKQSHGKSLEWIGDINPNNGGTSYNQKFKGKATLTVDKSSSTAYMELRSLTSEDSAVYYCARGAYYSNYFDYWGQGTTLTVSS
VL: DIVMSQSPSSLAVSAGEKVTMSCKSSQSLLNSRTRKNYLAWYQQKPGQSPKLLIYWASTRESGVPDRFTGSGSGTDFTLTISSVQAEDLAVYYCKQSYILFTFGSGTQLEIKR
notes: Anti-mouse TrkB antibody from hybridoma, mouse IgG2a Fc; also called surrogate anti-mouse TrkB antibody
On to B2, for which the “% Blockade with 100 nM antibody” value in the experiment with mouse TrkB.hFc is 11.6%. For the same molecule, in experiment [5], the “90 nM rTrkB.mmH Bound (RU)” value was determined as 33 RU, binding was put at a Kd of 26.9 nM, the koff was determined as 0.00398 s⁻¹ and the kon stood at 148000 M⁻¹ s⁻¹. In experiment [5], the “t½” value was determined as 2.9 min. Moreover, in experiment [6], the “90 nM TrkB.mmH Bound (RU)” value was 32 RU, binding was characterised by a dissociation constant (Kd) of 32.4 nM, the koff came out at 0.00372 s⁻¹ and the kon came to 115000 M⁻¹ s⁻¹. The “t½” value in experiment [6] came out at 3.1 min. Moreover, the “90nM hTrkB.mmH Bound (RU)” value in experiment [7] was -2 RU.

B3: H4H9780P (antibody, human IgG4 S228P, kappa, V domains shown)
VH: QVQLVESGGGVVQPGRSLRLSCAASGFSFSSFGMHWVRQAPGKGLEWVSVISYDGINTYYTDSVKGRFTISRDNSKNTLYLQMNGLRAEDTALYYCVQGSIGTVFEYWGQGTLVTVSS
VL: DIQMTQSPSSLSASVGDRVTITCRASQGISNYLAWYQQKPGKVPKLLIYAASTLQSGVPSRFGGSGSGTDFTLTISSLQPEDVATYYCQKYTSAPFTFGPGTKVDIKR
notes: Fully human anti-human TrkB agonist antibody, human IgG4 Fc; also called H4H9780P-L1
Take B3: the “antibody Binding (nm)” value in experiment [1] turned out to be 0.2 nm. Also, in experiment [2], the “antibody Binding (nm)” value was determined as 0.18 nm. For the same molecule, in experiment [3], the “Activation (%) … 100 pM BDNF” value is 55% and the “Activation (%), SRE-luciferase, No BDNF” value was determined as 0%. Besides, in experiment [4], the “Activation (%) … 100 pM BDNF” value stood at 77%; the “Activation (%), SRE-luciferase, No BDNF” value was found to be 88%; the “EC50 (M), SRE-luciferase, 100 pM BDNF” value is 7.6e-11 M; the “EC50 (M), SRE-luciferase, No BDNF” value is 8.2e-11 M.

B4: M2aM14173N (antibody, mouse IgG2a, kappa, V domains shown)
VH: NVSLVESGGGSVKPGGSLQLSCAASGFTFSSSAMSWIRQTPEMRLEWVATISDRGSYTYYPDSVEGRFTISRDNAKNILYLQMSHLMSEDTAMYYCARGKGEKAYYTAFFAYWGQGSLVTVSA
VL: DIQMTQSPASLSASVGETVTITCRASENIYSYLAWYQQKPGKSPHLLVHNAETLAEGVPSRFSGSGSGPQFSLKINSLQPGDSGTYYCQHHYSSPWTFGGGTKLEIKR
notes: as for B2
For B4, in the experiment with mouse TrkB.hFc, the “% Blockade with 100 nM antibody” value worked out at 29.7%. In experiment [5], the “90 nM rTrkB.mmH Bound (RU)” value was 33 RU, binding was put at a Kd of 8 nM, the koff was 0.000632 s⁻¹ and the kon came to 79000 M⁻¹ s⁻¹. In addition, the “t½” value in experiment [5] came to 18 min. Further, in experiment [6], the “90 nM TrkB.mmH Bound (RU)” value is 33 RU, binding was characterised by a dissociation constant (Kd) of 8.49 nM, the koff turned out to be 0.00063 s⁻¹ and the association rate constant (kon) came to 74100 M⁻¹ s⁻¹. The “t½” value in experiment [6] came out at 18 min. For the same molecule, in experiment [7], the “90nM hTrkB.mmH Bound (RU)” value worked out at 0 RU and the binding result is recorded as “no binding (tested: 90 nM)”.

B5: H1M8037C (antibody, mouse IgG1, kappa, V domains shown)
VH: QVQLVQSGAEVKKPGASVKVSCKASGYTFTNYDIIWVRQAPGQGLEWMGYINPYNDGTKYNEKFKGRVTMTRDTSTSTVYMELSSLRSEDTAVYYCARLLKYRRFRYYAIDYWGQGTTVTVSS
VL: DIQMTQSPSSLSASVGDRVTITCRTSENVYSNLAWYQQKPGKAPKLLIYAASNLQSGVPSRFSGSGSGTDYTFTISSLQPEDIATYYCQHFWGSPFTFGQGTKLEIKR
notes: captured by anti-mFc in SPR; also called Comparator; comparator anti-TrkB monoclonal antibody
Regarding B5, in the experiment with mouse TrkB.hFc, the “% Blockade with 100 nM antibody” value was 91.5% and the midpoint of inhibition, the IC50, lay at 0.18 nM. In experiment [3], the “Activation (%) … 100 pM BDNF” value amounted to 69%; the “Activation (%), SRE-luciferase, No BDNF” value is 85%; the “EC50 (M), SRE-luciferase, 100 pM BDNF” value was found to be 4.2e-11 M; the “EC50 (M), SRE-luciferase, No BDNF” value amounted to 4.3e-11 M. Besides, in experiment [4], the “Activation (%) … 100 pM BDNF” value worked out at 79%; the “Activation (%), SRE-luciferase, No BDNF” value came to 78%; the “EC50 (M), SRE-luciferase, 100 pM BDNF” value came out at 1.1e-10 M; the “EC50 (M), SRE-luciferase, No BDNF” value came out at 7.6e-11 M.

B6: H4H9814P (antibody, human IgG4 S228P, kappa, V domains shown)
VH: EVQLVESGGGLVQPGGSLKLSCTASGFTFSGSVIHWVRQASGKGLEWIGRIRNKANSYATAYGASVTGRFTISRDDSKNTAYLQMNSLKTEDTAVYYCTFPGVVGRGGFDYWGQGTLVTVSS
VL: DIVMTQSPDSLAVSLGEGATINCMSSQSVLFSSNNKNYLAWYQQKPGQPPKLLFYWASTRESGVPDRFGGSGSGTDFSLTINSLQTEDVAVYYCLQYYSIPWTFGQGTKVEIKR
notes: Fully human anti-human TrkB agonist antibody, human IgG4 Fc; also called H4H9814P-L1
Turning to B6, in experiment [1], the “antibody Binding (nm)” value was determined as 0.23 nm. The “antibody Binding (nm)” value in experiment [2] came out at 0.18 nm. For the same molecule, in experiment [3], the “Activation (%) … 100 pM BDNF” value worked out at 54% and the “Activation (%), SRE-luciferase, No BDNF” value came out at 0%. In experiment [4], the “Activation (%) … 100 pM BDNF” value was determined as 80%; the “Activation (%), SRE-luciferase, No BDNF” value stood at 92%; the “EC50 (M), SRE-luciferase, 100 pM BDNF” value worked out at 4.9e-11 M; the “EC50 (M), SRE-luciferase, No BDNF” value is 3.5e-11 M.
